The experiment concerns the target α-synuclein 1–140 tagged with the C-terminal Venus fragment (UniProt P37840). Description: split reporter.

Drawing on article PMC6561242, this text covers Venus complementation fluorescence and Venus complementation fluorescence relative to α-syn 1–140 for one substance.

Sequence of VAMP2 tagged with the N-terminal Venus fragment (natural protein) (P63027 2-116): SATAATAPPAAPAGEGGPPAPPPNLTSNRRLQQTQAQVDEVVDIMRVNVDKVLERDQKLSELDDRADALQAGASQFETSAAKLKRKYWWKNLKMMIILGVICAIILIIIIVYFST

For “VAMP2 tagged with the N-terminal Venus fragment (natural protein)”, the Venus complementation fluorescence at boutons relative to α-syn 1–140 was 1 and the Venus complementation fluorescence relative to α-syn 1–140 was 1.
